{"source": "patent US12043671B2", "about": "“Antibodies targeting an amphiregulin-derived cell surface neo-epitope” (Gundersen Lutheran Medical Foundation, Inc., priority 2021, dated 2024)", "molecules": {"B1": {"name": "1A3: Rabbit monoclonal IgG specific to cleaved AREG; VH SEQ ID NO: 3, VL SEQ ID NO: 4 (antibody, V domains shown)", "VH": "QSVKESEGRLVTPGTPLRLTCTVAGYSLSRYHMCWVRQAPGKGLEWIGMIGGSGRTDYASWAKGRFTISKTSTTVDLKITSPTTEDTATYFCSTVYTDSDGDFWGPGTLVTVSS", "VL": "AELDMTQTPSSKSVPVGGTVTINCQASESVYSNDRLAWFQQKPGQPPKLLIYYASTLASGVPSRFKGSGSGTQFTLTISDLECADAATYYCQSCYDMSSYGVAFGGGTELEIL", "modifications": "1A3 antibody, Heavy chain; 1A3 antibody, Light chain"}}, "key": {"[1]": {"target": "T1, peptide representing the neo-epitope of the ADAM17-cleavage product of human AREG (Homo sapiens, UniProt P15514)", "T1 construct": "host or cells: synthetic peptide", "experiment": "ELISA of rabbit IgG candidates against peptides representing cleaved and full length AREG", "format": "binding", "text": "FIGS. 1A-1C. Isolation of antibodies that selectively recognize a peptide representing cleaved AREG. FIG. 1A: Schematic representation of the AREG cleavage and EGFR activation process, one consequence of which is the internalization of the small transmembrane fragment that remains cell-associated after TACE/ADAM17-mediated cleavage. FIG. 1B: Schematic representation of phage panning strategy using a peptide representing the cleaved AREG neo-epitope adhered to the well and a peptide representing the non-cleaved AREG region in the liquid phase.\nRabbit monoclonal IgG antibodies specific to cleaved-AREG were identified in contracted screening (Oak Biosciences Inc., Sunnyvale, CA, USA) using a recombinant Rabbit naïve phage display library (scFv format, VK-linker-VH) screening platform after four rounds of panning and ELISA validation. For panning, phage was selected against a peptide modeling the ADAM17-cleaved cell-associated epitope of AREG,^12 represented by the N-terminal region of THSMIDSSLSKI (SEQ ID NO: 2), and counter-selected against a peptide spanning this region (SMKTHSMIDSSLSKIAC; SEQ ID NO: 9), representing uncleaved AREG. […] GMF-1A3, referred to hereafter as simply “1A3”, was the antibody chosen for further characterization in this Example."}, "[2]": {"target": "T2, Trunc AREG (fragment that remains cell-bound after cleavage by ADAM17) (Homo sapiens, UniProt P15514)", "T2 construct": "host or cells: synthetic peptide conjugated to transferrin", "experiment": "Immunoblot of TRF-conjugated AREG peptides, cleaved mimic", "format": "binding", "conditions": "1 μg/mL antibody, 200 ng TRF-conjugated peptide", "protocol": "(§1) Monomethyl auristatin E (MMAE) conjugated 1A3 antibody (1A3-VC-PAB-MMAE) was prepared using a kit (CM11409) from CellMosaic Inc. (Woburn, MA, USA) following the manufacturer's instructions. Maleimide-activated valine-citrulline p-aminobenzylcarbamate (VCPAB) MMAE was coupled directly to the antibody after reduction through alkylation.^13 The specificity of 1A3 and 1A3-VC-PAB-MMAE to peptides representing human cleaved-AREG was confirmed by immunoblotting. Briefly, transferrin (TRF) conjugated peptides representing cleaved and uncleaved AREG (200 ng) were electrophoresed on SDS-PAGE gels, transferred to PVDF membrane and probed with 1 μg/mL of 1A3 and 1A3-VC-PAB-MMAE. Horseradish peroxidase-conjugated goat anti-rabbit IgG was used. Antibody binding was detected with enhanced chemiluminescence (ECL; Amersham, Arlington Heights, IL, USA). Furthermore, the characterization and purity of 1A3-VC-PAB-MMAE were analyzed using hydrophobic interaction chromatography (HIC) and size-exclusion chromatography (Cell Mosaic)."}, "[3]": {"target": "T3, FL AREG (peptide representing uncleaved AREG) (Homo sapiens, UniProt P15514)", "T3 construct": "a peptide spanning this region (SMKTHSMIDSSLSKIAC); host or cells: synthetic peptide conjugated to transferrin", "experiment": "Immunoblot of TRF-conjugated AREG peptides, intact cleavage site", "format": "binding", "conditions": "1 μg/mL antibody, 200 ng TRF-conjugated peptide", "protocol": "as §1"}, "MCF7-F xenografts": {"tested_on": "MCF7-F xenografts", "experiment": "Orthotopic MCF7-F endocrine-resistant xenograft in NSG mice", "format": "in vivo, mouse", "text": "(§2) In Vivo Antitumor Activity Studies: The animal experiments were approved by the Institutional Animal Care and Use Committee of University of Wisconsin La Crosse (La Crosse, Wisconsin, USA). Four-week-old female NOD.Cg-Prkdc^scid II2rg^tm1Wjl/SzJ mice (NSG; The Jackson Laboratory) were acclimated for 1 week before the experiments. For MCF7 breast cancer xenograft model, the mice were implanted subcutaneously with 0.72-mg 17β-estradiol 90-day release tablets (Innovative Research of America) 3 days prior to cell injection. […] Firefly luciferase expressing MCF7 and MCF7-F cells (2×10^6 cells in a 1:1 mixture of serum-free DMEM and Matrigel) were injected orthotopically into the fourth inguinal mammary fat pad of each mouse. Once the tumors were well established, each cell line cohort was divided into three groups (n=5). Mean tumor volume at the start of treatment was 111 mm^3 for the MCF7 cohorts and 119 mm^3 for the MCF7-F cohorts. The mice were treated by intraperitoneal injection every 4 days for a total of six doses with unconjugated or MMAE conjugated anti-cleaved-AREG 1A3 antibody (5 mg/kg), or vehicle control (PBS). Tumor volumes were calculated from caliper data by using the formula: Volume (mm^3)=(Length×Width^2)/2. Mice were imaged weekly with the in vivo FX PRO imaging system (Carestream Molecular Imaging, Woodbridge, CA, USA) after injecting luciferin (150 mg/kg body weight). Tumor volume and body weight were monitored once a week. Statistical Analysis:\n(§3) To test in vivo efficacy of 1A3-MMAE, human breast cancer cell lines expressing luciferase were injected orthotopically into NSG mice (one tumor in each inguinal mammary gland). Once the average tumor size reached approximately 100-125 mm^3, mice were randomized to one of three treatment groups: PBS, 1A3 (5 mg/kg) or 1A3-MMAE (5 mg/kg). Mice received intraperitoneal injections every 4 days for six total injections and were monitored for tumor progression or regression. Similar experiments were performed with MCF7 (FIGS. 5A, 5B, and 5C, left panels) and MCF7-F (FIGS. 5A, 5B, and 5C, right panels) xenografts."}, "MCF7 xenografts": {"tested_on": "MCF7 xenografts", "experiment": "Orthotopic MCF7 breast cancer xenograft in NSG mice", "format": "in vivo, mouse", "text": "as §2, §3"}}, "data": [{"molecule": "B1", "values": [{"measurement": "selectivity for cleaved AREG by ELISA", "setting": "[1]; IgG format, cleaved vs uncleaved AREG peptide", "value": "selectivity for cleaved AREG was confirmed"}, {"measurement": "binding ratio of cleaved AREG to intact AREG as determined by ELISA", "setting": "[1]; compared among the three antibodies", "value": "highest binding ratio"}, {"measurement": "recognition of truncated AREG peptide by immunoblot", "setting": "[2]", "value": "specifically recognized"}, {"measurement": "reaction with peptide representing uncleaved AREG by immunoblot", "setting": "[3]", "value": "did not react"}, {"measurement": "longitudinal luciferase imaging of xenografts", "setting": "MCF7-F xenografts; 5 mg/kg", "value": "exhibited tumor growth"}, {"measurement": "tumor volume response by caliper measurements", "setting": "MCF7-F xenografts; 5 mg/kg i.p. every 4 days, six doses", "value": "continued, sometimes rapid increases in tumor volume"}, {"measurement": "longitudinal luciferase imaging of xenografts", "setting": "MCF7 xenografts; MCF7, 5 mg/kg", "value": "exhibited tumor growth"}, {"measurement": "tumor volume response by caliper measurements", "setting": "MCF7 xenografts; MCF7, 5 mg/kg i.p. every 4 days, six doses", "value": "continued, sometimes rapid increases in tumor volume"}]}]}
